Data reported in patent US20250026846A1 (JCR PHARMACEUTICALS, published 2025).
Changes are numbered by the printed parent chain. Like-named read-outs stand apart in the source and are kept apart here.

Experiments:
[1] = biological target: T1, recombinant monkey TfR (r monkey TfR: Sino Biological Inc.), crab-eating monkey TfR extracellular region with … (crab-eating monkey (Macaca fascicularis)); test: BLI (Octet RED96), His-tagged TfR ECD on Ni-NTA sensor
T1 construct: Bought from Sino Biological; also called r monkey TfR-ECD (Histag); not shown: histidine tag at the N-terminus
T1 chain: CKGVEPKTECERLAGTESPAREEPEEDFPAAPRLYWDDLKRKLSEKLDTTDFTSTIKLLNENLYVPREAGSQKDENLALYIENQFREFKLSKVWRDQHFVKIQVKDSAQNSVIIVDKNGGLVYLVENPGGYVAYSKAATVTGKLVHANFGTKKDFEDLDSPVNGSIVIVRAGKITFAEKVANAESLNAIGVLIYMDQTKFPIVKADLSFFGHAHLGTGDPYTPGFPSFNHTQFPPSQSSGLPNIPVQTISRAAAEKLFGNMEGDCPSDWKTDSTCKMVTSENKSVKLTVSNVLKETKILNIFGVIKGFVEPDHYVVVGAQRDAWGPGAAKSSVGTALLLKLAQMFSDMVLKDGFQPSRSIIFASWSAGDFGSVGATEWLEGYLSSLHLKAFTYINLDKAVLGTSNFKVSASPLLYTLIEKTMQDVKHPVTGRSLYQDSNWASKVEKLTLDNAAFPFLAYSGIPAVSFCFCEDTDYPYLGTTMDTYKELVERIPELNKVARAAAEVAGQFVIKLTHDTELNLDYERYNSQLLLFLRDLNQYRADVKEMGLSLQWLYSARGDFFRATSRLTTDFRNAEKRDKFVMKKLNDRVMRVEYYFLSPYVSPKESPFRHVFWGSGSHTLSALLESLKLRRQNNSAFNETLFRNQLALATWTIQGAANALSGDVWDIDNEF
Description: (§1) Each of the sample solutions prepared above by 2-fold dilution steps was added, 200 μL/well, to a 96-well plate, black (Greiner Bio-One Inc.). Each of the r human TfR-ECD (Histag) solution and the r monkey TfR-ECD (Histag) solutions prepared above was added, 200 μL/well, to predetermined wells. To respective wells for baseline, dissociation and washing were added HBS-P+, 200 μL/well. To wells for regeneration were added 10 mM Glycine-HCl (pH 1.7), 200 μL/well. To wells for activation was added 0.5 mM NiCl₂ solution, 200 μL/well. The plate and biosensor (Biosensor/Ni-NTA: ForteBio Inc., a division of Pall Corporation) were set in the prescribed positions of Octet RED96.
(§2) The measurement was performed at 25 to 30° C.
(§3) The affinity of humanized anti-hTfR antibody No. 3 obtained in Example 13 and humanized anti-hTfR antibody No. 3N obtained in Example 17 to human TfR and monkey TfR was measured by the method described in Example 7. […] Besides, the measurement indicating the affinity of humanized anti-hTfR antibody No. 3 to monkey TfR differed from that shown in Table 7, but is an experimental error.

[2] = biological target: T1, recombinant monkey TfR (r monkey TfR: …); test: as above
Description: as §1, §2
(§4) The affinity of the humanized anti-hTfR antibodies obtained in Example 13 to human and monkey TfRs was measured by the method described in Example 7.

[3] = biological target: T2, recombinant human TfR (r human TfR: Sino Biological Inc.), hTfR extracellular region with a histidine tag at … (human, UniProt P02786 89-760); test: as above
T2 construct: Bought from Sino Biological; also called r human TfR-ECD (Histag); recombinant hTfR; not shown: histidine tag at the N-terminus
Description: as §1, §2, §4

[4] = biological target: T2, recombinant human TfR (r human TfR: …); test: as above; remark: listed apart in the source
Description: as §1, §2
as §3, with “[…]” for “monkey”, “6,” for “7,”

[5] = biological target: T1, recombinant monkey TfR (r monkey TfR: …); test: BLI (Octet RED96)
[6] = biological target: T1, recombinant monkey TfR (r monkey TfR: …); test: BLI (Octet RED96), His-tagged TfR ECD on Ni-NTA sensor
Description: (§5) The purified product of anti-hTfR antibody No. 3 was subjected to 2-fold dilution steps with HBS-P+ (10 mM HEPES containing 150 mM NaCl, 50 μM EDTA and 0.05% Surfactant P20) to prepare antibody solutions of 7 different concentrations, 0.78125 to 50 nM (0.117 to 7.5 μg/mL). The antibody solution was used as the sample solution. The r human and r monkey TfRs were respectively diluted with HBS-P+ to prepare 25 μg/mL solutions, which were used as r human TfR-ECD (Histag) solution and r monkey TfR-ECD (Histag) solution, respectively.
as §1, §2

[7] = biological target: T2, recombinant human TfR (r human TfR: …); test: as above; remark: listed apart in the source
Description: as §5, §1, §2

[8] = biological target: T1, recombinant monkey TfR (r monkey TfR: …); test: as above
[9] = biological target: T2, recombinant human TfR (r human TfR: …); test: as above; remark: listed apart in the source

B1: humanized anti-hTfR antibody No. 3 (antibody, human IgG1, kappa)
light: DIVMTQTPLSLSVTPGQPASISCRSSQSLVHSNGNTYLHWYLQKPGQSPQLLIYKVSNRFSGVPDRFSGSGSGTDFTLKISRVEAEDVGVYYCSQSTHVPWTFGQGTKVEIKRTVAAPSVFIFPPSDEQLKSGTASVVCLLNNFYPREAKVQWKVDNALQSGNSQESVTEQDSKDSTYSLSSTLTLSKADYEKHKVYACEVTHQGLSSPVTKSFNRGEC
heavy: not shown
notes: IgG1; Expressed from pE-hygr(LC3) and pE-neo(HC3) in CHO cells; also called Humanized anti-hTfR antibody 3
Question: Which Kd [1] does the source give for B1 here?
Answer: 1.32 nM

Question: What about the koff [1] of the same binder?
Answer: 0.000806 s⁻¹

Question: And the kon [1]?
Answer: 609000 M⁻¹ s⁻¹

Question: And the Kd [2]?
Answer: 1.12 nM

Question: And the koff [2]?
Answer: 0.000676 s⁻¹

Question: What about the kon [2] of the same binder?
Answer: 603000 M⁻¹ s⁻¹

Question: What about the Kd [3] of the same binder?
Answer: < 0.001 nM

Question: And the koff [3]?
Answer: < 1e-07 s⁻¹

Question: And the kon [3]?
Answer: 1.19e+06 M⁻¹ s⁻¹

Question: What about the Kd [4] of the same binder?
Answer: < 1 pM

Question: What about the koff [4] of the same binder?
Answer: < 1e-07 s⁻¹

Question: What about the kon [4] of the same binder?
Answer: 847000 M⁻¹ s⁻¹

B2: humanized anti-hTfR antibody No. 3-2 (antibody, human IgG1, kappa)
light: B1 light with T7S, S12P, Q17E
heavy: not shown
notes: IgG1
Question: Which results are given for B2?
Answer: Kd [2]: 1.77 nM; koff [2]: 0.000876 s⁻¹; kon [2]: 495000 M⁻¹ s⁻¹; Kd [3]: 0.0239 nM; koff [3]: 1.45e-05 s⁻¹; kon [3]: 606000 M⁻¹ s⁻¹

B3: humanized anti-hTfR antibody No. 3-3 (antibody, human IgG1, kappa)
light: B1 light with S12P, Q17E, K108R, V109L
heavy: not shown
notes: IgG1
Question: How did the Kd [2] turn out when B3 was run?
Answer: 1.91 nM

Question: What about the koff [2] of the same binder?
Answer: 0.000932 s⁻¹

Question: What about the kon [2] of the same binder?
Answer: 488000 M⁻¹ s⁻¹

Question: What about the Kd [3] of the same binder?
Answer: 0.0209 nM

Question: What about the koff [3] of the same binder?
Answer: 1.25e-05 s⁻¹

Question: What about the kon [3] of the same binder?
Answer: 600000 M⁻¹ s⁻¹

B4: humanized anti-hTfR antibody No. 3-4 (antibody, human IgG1, kappa, V domains shown)
VH: EVQLVQSGAEVKKPGESLKISCKGSGYSFTNYWLGWVRQMPGKGLEWMGDIYPGGDYPTYSEKFKVQVTISADKSISTAYLQWSSLKASDTAMYYCARSGNYDEVAYWGQGTLVTVSS
VL: DIVMTQTPLSLSVTPGQPASISCRSSQSLVHSNGNTYLHWYLQKPGQSPQLLIYKVSNRFSGVPDRFSGSGSGTDFTLKISRVEAEDVGVFFCSQSTHVPWTFGQGTKVEIKR
notes: IgG1
Question: Which Kd [2] does the source give for B4 here?
Answer: 0.26 nM

Question: And the koff [2]?
Answer: 0.000135 s⁻¹

Question: What about the kon [2] of the same binder?
Answer: 519000 M⁻¹ s⁻¹

Question: And the Kd [3]?
Answer: < 0.001 nM

Question: What about the koff [3] of the same binder?
Answer: < 1e-07 s⁻¹

Question: And the kon [3]?
Answer: 1.01e+06 M⁻¹ s⁻¹

B5: humanized anti-hTfR antibody No. 3N (antibody, human IgG1, kappa, V domains shown)
VH: B4 VH with T30M, W83L
VL: B4 VL with F91Y, F92Y
notes: IgG1; also called Humanized anti-hTfR antibody 3N
Question: Which Kd [1] does the source give for B5 here?
Answer: 0.0507 nM

Question: What about the koff [1] of the same binder?
Answer: 1.96e-05 s⁻¹

Question: What about the kon [1] of the same binder?
Answer: 386000 M⁻¹ s⁻¹

Question: And the “KD relative to that of humanized anti-hTfR antibody No. 3” value [5]?
Answer: ~0.033 fold

Question: And the “fold affinity against humanized anti-hTfR antibody No. 3” value [5]?
Answer: ~30 fold

Question: And the Kd [4]?
Answer: < 1 pM

Question: What about the koff [4] of the same binder?
Answer: < 1e-07 s⁻¹

Question: What about the kon [4] of the same binder?
Answer: 784000 M⁻¹ s⁻¹

B6: anti-hTfR antibody No. 3 (mouse antibody produced by hybridoma Clone 3 line) (antibody, V domains shown)
VH: EVQLQESGAELVRPGTSVKISCKASGYSFTNYWLGWVKQRPGHGLEWIGDIYPGGDYPTYSEKFKVKAILTADTSSSSVYLHLSSLTSEDSAVYFCARSGNYDEVAYWGQGTLVTVST
VL: B4 VL with P8T, S12P, T14S, P15L, Q17D, P18Q, Q50K, V88L, Q105G, V109L
notes: Whole mouse antibody purified from hybridoma supernatant on Protein G; also called mouse anti-hTfR antibody No. 3; pre-humanized anti-hTfR antibody
Question: B6 was tested. Which Kd [6] did it give?
Answer: < 1 pM

Question: And the koff [6]?
Answer: < 1e-07 s⁻¹

Question: And the kon [6]?
Answer: 389000 M⁻¹ s⁻¹

Question: What about the Kd [7] of the same binder?
Answer: < 1 pM

Question: And the koff [7]?
Answer: < 1e-07 s⁻¹

Question: What about the kon [7] of the same binder?
Answer: 653000 M⁻¹ s⁻¹

B7: Fab GS3-LAMAN (other)
light: B1 light
heavy: EVQLVQSGAEVKKPGESLKISCKGSGYSFMNYWLGWVRQMPGKGLEWMGDIYPGGDYPTYSEKFKVQVTISADKSISTAYLQLSSLKASDTAMYYCARSGNYDEVAYWGQGTLVTVSSASTKGPSVFPLAPSSKSTSGGTAALGCLVKDYFPEPVTVSWNSGALTSGVHTFPAVLQSSGLYSLSSVVTVPSSSLGTQTYICNVNHKPSNTKVDKKVEPKSCDKTHTGGGGSGGGGSGGGGSGGYETCPTVQPNMLNVHLLPHTHDDVGWLKTVDQYFYGIKNDIQHAGVQYILDSVISALLADPTRRFIYVEIAFFSRWWHQQTNATQEVVRDLVRQGRLEFANGGWVMNDEAATHYGAIVDQMTLGLRFLEDTFGNDGRPRVAWHIDPFGHSREQASLFAQMGFDGFFFGRLDYQDKWVRMQKLEMEQVWRASTSLKPPTADLFTGVLPNGYNPPRNLCWDVLCVDQPLVEDPRSPEYNAKELVDYFLNVATAQGRYYRTNHTVMTMGSDFQYENANMWFKNLDKLIRLVNAQQAKGSSVHVLYSTPACYLWELNKANLTWSVKHDDFFPYADGPHQFWTGYFSSRPALKRYERLSYNFLQVCNQLEALVGLAANVGPYGSGDSAPLNEAMAVLQHHDAVSGTSRQHVANDYARQLAAGWGPCEVLLSNALARLRGFKDHFTFCQQLNISICPLSQTAARFQVIVYNPLGRKVNWMVRLPVSEGVFVVKDPNGRTVPSDVVIFPSSDSQAHPPELLFSASLPALGFSTYSVAQVPRWKPQARAPQPIPRRSWSPALTIENEHIRATFDPDTGLLMEIMNMNQQLLLPVRQTFFWYNASIGDNESDQASGAYIFRPNQQKPLPVSRWAQIHLVKTPLVQEVHQNFSAWCSQVVRLYPGQRHLELEWSVGPIPVGDTWGKEVISRFDTPLETKGRFYTDSNGREILERRRDYRPTWKLNQTEPVAGNYYPVNTRIYITDGNMQLTVLTDRSQGGSSLRDGSLELMVHRRLLKDDGRGVSEPLMENGSGAWVRGRHLVLLDTAQAAAAGHRLLAEQEVLAPQVVLAPGGGAAYNLGAPPRTQFSGLRRDLPPSVHLLTLASWGPEMVLLRLEHQFAVGEDSGRNLSAPVTLNLRDLFSTFTITRLQETTLVANQLREAASRLKWTTNTGPTPHQTPYQLDPANITLEPMEIRTFLASVQWKEVDG
notes: also called Fab HC-GS3-LAMAN
Question: How did the Kd [8] turn out when B7 was run?
Answer: < 1 pM

Question: And the koff [8]?
Answer: < 1e-07 s⁻¹

Question: And the kon [8]?
Answer: 357000 M⁻¹ s⁻¹

Question: What about the Kd [9] of the same binder?
Answer: < 1 pM

Question: And the koff [9]?
Answer: < 1e-07 s⁻¹

Question: What about the kon [9] of the same binder?
Answer: 729000 M⁻¹ s⁻¹
